Results as given in US20110118131A1 (published 2011).

T1: Ep-CAM (UniProt P16422 24-265, limits assumed)
T1 construct: Antigen of the Biacore analysis of ING-1 variants
T1 sequence (looked up): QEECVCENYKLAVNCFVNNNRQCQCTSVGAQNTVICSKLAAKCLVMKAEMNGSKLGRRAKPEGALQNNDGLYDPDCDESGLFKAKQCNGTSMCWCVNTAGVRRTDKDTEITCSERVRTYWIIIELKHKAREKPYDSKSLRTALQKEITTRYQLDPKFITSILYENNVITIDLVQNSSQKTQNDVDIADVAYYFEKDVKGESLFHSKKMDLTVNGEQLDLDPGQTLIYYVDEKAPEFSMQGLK


Biological target: T1, Ep-CAM
Test: Biacore, Fab periplasmic extract

Binder	binding result	fold difference in affinity vs original
ING-1 heavy chain G100Q (Fab, V domains shown) VH: QIQLVQSGPELKKPGETVKISCKASGYTFTKYGMNWVKQAPGKGLKWMGWINTYTEEPTYGDDFKGRFAFSLETSASTANLQINNLKSEDTATYFCARFQSAVDYWGQGTSVTVSS VL: DIVMTQAAFSNPVTLGTSGSISCRSSKSLLHSNGITYLYWYLQKPGQSPQLLIYQMSNLASGVPDRFSSSGSGTDFTLRISRVEAEDVGVYYCAQNLELPRTFGGGTKLEMKR	no binding	
ING-1 heavy chain K31Y (Fab, V domains shown) VH: QIQLVQSGPELKKPGETVKISCKASGYTFTYYGMNWVKQAPGKGLKWMGWINTYTEEPTYGDDFKGRFAFSLETSASTANLQINNLKSEDTATYFCARFGSAVDYWGQGTSVTVSS VL: DIVMTQAAFSNPVTLGTSGSISCRSSKSLLHSNGITYLYWYLQKPGQSPQLLIYQMSNLASGVPDRFSSSGSGTDFTLRISRVEAEDVGVYYCAQNLELPRTFGGGTKLEMKR		1 fold
ING-1 heavy chain K31N (Fab, V domains shown) VH: QIQLVQSGPELKKPGETVKISCKASGYTFTNYGMNWVKQAPGKGLKWMGWINTYTEEPTYGDDFKGRFAFSLETSASTANLQINNLKSEDTATYFCARFGSAVDYWGQGTSVTVSS VL: DIVMTQAAFSNPVTLGTSGSISCRSSKSLLHSNGITYLYWYLQKPGQSPQLLIYQMSNLASGVPDRFSSSGSGTDFTLRISRVEAEDVGVYYCAQNLELPRTFGGGTKLEMKR	no binding	
ING-1 heavy chain N52F (Fab, V domains shown) VH: QIQLVQSGPELKKPGETVKISCKASGYTFTKYGMNWVKQAPGKGLKWMGWIFTYTEEPTYGDDFKGRFAFSLETSASTANLQINNLKSEDTATYFCARFGSAVDYWGQGTSVTVSS VL: DIVMTQAAFSNPVTLGTSGSISCRSSKSLLHSNGITYLYWYLQKPGQSPQLLIYQMSNLASGVPDRFSSSGSGTDFTLRISRVEAEDVGVYYCAQNLELPRTFGGGTKLEMKR	no binding	
ING-1 heavy chain N52D (Fab, V domains shown) VH: QIQLVQSGPELKKPGETVKISCKASGYTFTKYGMNWVKQAPGKGLKWMGWIDTYTEEPTYGDDFKGRFAFSLETSASTANLQINNLKSEDTATYFCARFGSAVDYWGQGTSVTVSS VL: DIVMTQAAFSNPVTLGTSGSISCRSSKSLLHSNGITYLYWYLQKPGQSPQLLIYQMSNLASGVPDRFSSSGSGTDFTLRISRVEAEDVGVYYCAQNLELPRTFGGGTKLEMKR		0.02 fold
ING-1 heavy chain G100W (Fab, V domains shown) VH: QIQLVQSGPELKKPGETVKISCKASGYTFTKYGMNWVKQAPGKGLKWMGWINTYTEEPTYGDDFKGRFAFSLETSASTANLQINNLKSEDTATYFCARFWSAVDYWGQGTSVTVSS VL: DIVMTQAAFSNPVTLGTSGSISCRSSKSLLHSNGITYLYWYLQKPGQSPQLLIYQMSNLASGVPDRFSSSGSGTDFTLRISRVEAEDVGVYYCAQNLELPRTFGGGTKLEMKR	no binding	
ING-1 heavy chain N52E (Fab, V domains shown) VH: QIQLVQSGPELKKPGETVKISCKASGYTFTKYGMNWVKQAPGKGLKWMGWIETYTEEPTYGDDFKGRFAFSLETSASTANLQINNLKSEDTATYFCARFGSAVDYWGQGTSVTVSS VL: DIVMTQAAFSNPVTLGTSGSISCRSSKSLLHSNGITYLYWYLQKPGQSPQLLIYQMSNLASGVPDRFSSSGSGTDFTLRISRVEAEDVGVYYCAQNLELPRTFGGGTKLEMKR	no binding	
ING-1 heavy chain G100Y (Fab, V domains shown) VH: QIQLVQSGPELKKPGETVKISCKASGYTFTKYGMNWVKQAPGKGLKWMGWINTYTEEPTYGDDFKGRFAFSLETSASTANLQINNLKSEDTATYFCARFYSAVDYWGQGTSVTVSS VL: DIVMTQAAFSNPVTLGTSGSISCRSSKSLLHSNGITYLYWYLQKPGQSPQLLIYQMSNLASGVPDRFSSSGSGTDFTLRISRVEAEDVGVYYCAQNLELPRTFGGGTKLEMKR	no binding	
